The target of test [1] is T1, extracellular domain of Ep-CAM (UniProt P16422 24-265, DIGylated (sites not given)).
T1 chain: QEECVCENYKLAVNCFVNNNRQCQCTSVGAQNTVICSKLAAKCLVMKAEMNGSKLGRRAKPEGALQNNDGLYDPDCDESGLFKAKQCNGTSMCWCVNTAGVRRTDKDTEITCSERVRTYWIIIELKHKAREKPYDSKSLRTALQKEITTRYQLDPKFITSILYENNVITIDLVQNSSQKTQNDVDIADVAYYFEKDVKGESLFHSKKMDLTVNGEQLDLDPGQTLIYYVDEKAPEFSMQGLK
The experiment in a line: AlphaScreen competition.

The target of test [2] is FcγRIIIa (158V form) (human, UniProt P08637 17-208). The test is described as follows: AlphaScreen competition. A general note: In Alpha technology, singlet oxygen from a donor bead excites a nearby acceptor bead.
Test [3] addresses H3.77_L3 I332E/H268E Hybrid.
Test [4] concerns the target H3.77_L3 I332E/G236A Hybrid.
The target in test [5] is H3.77_L3 S239D/I332E Hybrid.
Test [6] has as its target H3.77_L3 S239D/I332E/A330Y Hybrid.
Test [7] has as its target H3.77_L3 S239D/I332E/G236A Hybrid.
The target of test [8] is H3.77_L3 WT Hybrid.
For test [9], the target named is H3.77_L3 S239D/H268E Hybrid.
Test [10] deals with H1L4. The test is described as follows: SPR.
For test [11], the target named is H3L2. The experiment in a line: SPR. A general note: In SPR one partner is held on a chip, and binding of the other changes the refractive index at the surface.
The target in test [12] is H4L3. The test is described as follows: SPR.
Test [13] deals with H1L3. The experiment in a line: SPR.
In test [14] the target is H3L3. The experiment in a line: SPR.
The target in test [15] is H4L4. The test is described as follows: SPR.
The target in test [16] is H2L1. The experiment in a line: SPR.
Test [17] concerns the target H3L1. The experiment in a line: SPR.
The target in test [18] is H3L4. The test is described as follows: SPR.
Test [19] has as its target H2L3. The experiment in a line: SPR.
In test [20] the target is H2L4. The test is described as follows: SPR.
For test [21], the target named is H6L4. The test is described as follows: SPR.
For test [22], the target named is H6L3. The experiment in a line: SPR.
The target of test [23] is H4L1. The test is described as follows: SPR.
Test [24] concerns the target H1L1. The test is described as follows: SPR.
For test [25], the target named is H3.77_L3 I332E/H268E/G236A Hybrid.

Sequence of FcγRIIIa (158V form) (P08637 17-208 F176V): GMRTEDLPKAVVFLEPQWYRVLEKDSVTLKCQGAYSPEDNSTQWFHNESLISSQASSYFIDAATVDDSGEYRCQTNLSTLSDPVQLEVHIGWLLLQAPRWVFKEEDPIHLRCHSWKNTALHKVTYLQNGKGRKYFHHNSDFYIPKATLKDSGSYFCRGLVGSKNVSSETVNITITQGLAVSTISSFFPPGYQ

B1: 17-1A H0 (antibody)
chain: QVQLQQSGAELVRPGTSVKVSCKASGYAFTNYLIEWVKQRPGQGLEWIGVINPGSGGTNYNEKFKGKATLTADKSSSTAYMQLSSLTSDDSAVYFCARDGPWFAYWGQGTLVTVSA
As for B1, the half-inhibitory concentration (IC50) (as a rule, the concentration needed to halve the response being measured) was found to be 333 nM in test [1] and 32.7 nM in test [2].

B2: R131 FcgRIIa (receptor)
chain: QAAAPPKAVLKLEPPWINVLQEDSVTLTCQGARSPESDSIQWFHNGNLIPTHTQPSYRFKANNNDSGEYTCQTGQTSLSDPVHLTVLSEWLVLQTPHLEFQEGETIMLRCHSWKDKPLVKVTFFQNGKSQKFSRLDPTFSIPQANHSHSGDYHCTGNIGYTLFSSKPVTITVQVPSMGSSSPMG
With B2, the Kd (as a rule, the constant that tells how readily two partners part at equilibrium) amounted to 86.1 nM in test [3]; 54.4 nM in test [4]; 78.9 nM in [5]; 88.9 nM in [6]; 13.7 nM in [7]; 413 nM in test [8]. The same molecule yielded a Kd in test [9] of 42.7 nM.

B3: EpCAM (Fc fusion)
chain: T1 chain
Turning to B3, the Kd in [10] was 58.9 nM; in [11], 615 nM; in [12], 1310 nM; in test [13], 54.1 nM; in test [14], 292 nM; in test [15] it was 3000 nM. Besides, the Kd in [16] came to 75.4 nM; in test [17] it was 385 nM; in [18], 335 nM; in [19], 63 nM; in test [20], 66.6 nM; in [21], 5200 nM. In addition, the Kd in [22] amounted to 4800 nM; in test [23], 6600 nM; in test [24], 77.8 nM.

B4: FcgRIIb (receptor)
chain: TPAAPPKAVLKLEPQWINVLQEDSVTLTCRGTHSPESDSIQWFHNGNLIPTHTQPSYRFKANNNDSGEYTCQTGQTSLSDPVHLTVLSEWLVLQTPHLEFQEGETIVLRCHSWKDKPLVKVTFFQNGKSKKFSRSDPNFSIPQANHSHSGDYHCTGNIGYTLYSSKPVTITVQAP
B4: the Kd came to 117 nM in [3]; 557 nM in test [4]; 142 nM in test [5]; 144 nM in [6]; 146 nM in test [7]; 635 nM in test [8]. Also, the Kd in test [25] came out at 154 nM; in [9], 81.5 nM.

These data come from US20070161783A1 (published 2007).
